Measurements taken from US20240376183A1 (UNIVERSIT T ZU K LN, published 2024).
Substitutions are numbered along the chain they refer to.

B1: antibody 2-12 (antibody, V domains shown)
VH: QLVQSGGGVRRPGASVKISCETPEDTFTKYWLHWLRQAPGQGLEWMGVVSPHGGRPMFAFEFRDRLTLTRDIHTTTHFMELRGLTSDDTAVYYCARDPFGETFRGHDQPYRMDVWGGGTTIVVSS
VL: EPVLTQSPGTLSVSPGEGATLSCRARQGFSADHVAWFQKKPGRPPRLLIFEASRRASGTPERFSGSGSGPEYTLTITRVEAEDFAVYYCQSYGSITPLVFGGGTRVDVK
B2: antibody 1-18 (antibody, V domains shown)
VH: QGRLFQSGAEVKRPGASVRISCRADDDPYTDDDTFTKYWTHWIRQAPGQRPEWLGVISPHFARPIYSYKFRDRLTLTRDSSLTAVYLELKGLQPDDSGIYFCARDPFGDRAPHYNYHMDVWGGGTAVIVSS
VL: EVVLTQSPAILSVSPGDRVILSCRASQGLDSSHLAWYRFKRGQIPTLVIFGTSNRARGTPDRFSGSGSGADFTLTISRVEPEDFATYYCQRYGGTPITFGGGTTLDKK
B3: antibody 1-55 (antibody, V domains shown)
VH: QRRLFQSGTEVKRPGASVKISCRADDDPYTDDDTFTKYYTHWIRQAPGQPPEWLGVISPHFARPIYSYKFRDRLTLTRDSSLTAVYFELRGLQPDDTGIYFCARDPFGDMYPHYNYHMDVWGGGTTVIVSA
VL: B2 VL with V2A, R24K, Q27E, D30S, H33D, R41G, T52A, A70T, S77N

target: HIV-1 Env protein of virus strain 89-F1_2_25 (HIV-1); assay: cell-based or functional assay

| Binder | IC50, TZM-bl pseudovirus neutralization assay [ng/mL] |
| --- | --- |
| B1 | 6 |
| B2 | 7 |
| B3 | 14 |
